Measurements: US20220177587A1, “METHODS AND USES OF VARIANT CD80 FUSION PROTEINS AND RELATED CONSTRUCTS” (Alpine Immune Sciences, Inc., priority 2018, published 2022)

Assays:
[1] = biological target: T1, CD28 (Homo sapiens, UniProt P10747); assay: Flow binding to Jurkat/IL2 reporter cells (CD28); design: host or cells: Jurkat cells expressing an IL-2-luciferase reporter; conditions: Table E4; 33.3 nM; Jurkat cells (CD28)
How it was run: (§1)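 Binding EC50 and PE mean fluorescence intensity derived by flow cytometry using PE-labelled anti-human Fc secondary. Target cells were CTLA4- or PD-L1-transfected CHO lines and CD28-expressing Jurkat/IL2 reporter cells, stained with fusion proteins on ice for 45 min following BSA blocking.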

[2] = biological target: T1, CD28; assay: Jurkat/IL2 + K562/OKT3/PD-L1 reporter assay; assay type: cell-based; design: host or cells: Jurkat cells expressing an IL-2-luciferase reporter; conditions: Table E8; K562/OKT3/PD-L1 aAPC; 50 nM
[3] = biological target: huPD-L1 (Homo sapiens, UniProt Q9NZQ7); assay: Flow binding to CHO cells stably expressing PD-L1; design: huCTLA4 and huPD-L1, full-length mammalian surface expression constructs were generated; expressed in transfected cells; host or cells: CHO cells, lentiviral transduction, sorted to >98% purity; conditions: Table E4; 33.3 nM; CHO cells stably expressing PD-L1
huPD-L1, sequence (Q9NZQ7 19-290): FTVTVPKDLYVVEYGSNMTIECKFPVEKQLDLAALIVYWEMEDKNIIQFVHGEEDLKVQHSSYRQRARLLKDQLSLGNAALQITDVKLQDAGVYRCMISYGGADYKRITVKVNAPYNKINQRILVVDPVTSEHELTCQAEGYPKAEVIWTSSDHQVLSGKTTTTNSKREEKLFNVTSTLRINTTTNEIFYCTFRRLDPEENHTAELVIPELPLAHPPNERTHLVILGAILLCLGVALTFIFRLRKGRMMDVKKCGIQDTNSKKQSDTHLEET
How it was run: as §1

[4] = biological target: huCTLA4 (Homo sapiens, UniProt P16410); assay: Flow binding to CHO cells stably expressing CTLA4; design: huCTLA4 and huPD-L1, full-length mammalian surface expression constructs were generated; expressed in transfected cells; host or cells: CHO cells, lentiviral transduction, sorted to >98% purity; conditions: Table E4; 33.3 nM variant CD80 IgV-Fc; CHO cells stably expressing CTLA4
huCTLA4, sequence (P16410 36-223): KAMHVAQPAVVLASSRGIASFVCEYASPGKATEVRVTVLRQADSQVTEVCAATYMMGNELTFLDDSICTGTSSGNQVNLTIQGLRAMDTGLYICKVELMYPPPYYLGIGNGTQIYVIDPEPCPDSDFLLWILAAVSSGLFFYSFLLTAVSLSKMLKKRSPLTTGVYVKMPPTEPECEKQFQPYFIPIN
How it was run: as §1

Row | Molecule | CD28 MFI at 33.3 nM [1] | Relative Luciferase Units (RLU), CD80-Fe Cone 50 nM [2] | PD-L1 MFI at 33.3 nM [3] | CTLA4 MFI at 33.3 nM [4] | Fold Increase over WT CD80-IgV-Fe [2]
1 | V22D/E35D/M47L/L85Q (protein, CD80 v261 ECD) VIHVTKEVKEVATLSCGHNVSDEELAQTRIYWQKDKKMVLTMMSGDLNIWPEYKNRTIFDITNNLSIVILALRPSDEGTYECVVQKYEKDAFKREHLAEVTLSVKADFPTPSISDFETPTSNIRRIICSTSGGFPEPHLSWLENGEELNAINTTVSQDPETELYAVSSKLDFNMTTNHSFMCLIKYGHLRVNQTFNWNTTKQEHFPDN | 542 | 1142 RLU | – | – | –
2 | E35D/M47I/Y87Q/K89E (protein, UniProt P33681 35-288, looked up, variant E35D M47I Y87Q K89E) T-lymphocyte activation …: VIHVTKEVKEVATLSCGHNVSVEELAQTRIYWQKDKKMVLTMMSGDINIWPEYKNRTIFDITNNLSIVILALRPSDEGTYECVVLKQEEDAFKREHLAEVTLSVKADFPTPSISDFEIPTSNIRRIICSTSGGFPEPHLSWLENGEELNAINTTVSQDPETELYAVSSKLDFNMTTNHSFMCLIKYGHLRVNQTFNWNTTKQEHFPDNLLPSWAITLISVNGIFVICCLTYCFAPRCRERRRNERLRRESVRPV | 15452 | 1581 RLU | 29803 | – | –
3 | Q33R/E35D/M47V/N48K/L85M/F92L (protein, UniProt P33681 35-288, looked up, variant Q33R E35D M47V N48K L85M F92L, Fc fusion) T-lymphocyte activation …: VIHVTKEVKEVATLSCGHNVSVEELAQTRIYWRKDKKMVLTMMSGDVKIWPEYKNRTIFDITNNLSIVILALRPSDEGTYECVVMKYEKDALKREHLAEVTLSVKADFPTPSISDFEIPTSNIRRIICSTSGGFPEPHLSWLENGEELNAINTTVSQDPETELYAVSSKLDFNMTTNHSFMCLIKYGHLRVNQTFNWNTTKQEHFPDNLLPSWAITLISVNGIFVICCLTYCFAPRCRERRRNERLRRESVRPV | – | 215 RLU | – | 2680 | –
4 | I30V/E35D/M47V/A71G/A91V (protein, UniProt P33681 35-288, looked up, variant I30V E35D M47V A71G A91V) T-lymphocyte activation …: VIHVTKEVKEVATLSCGHNVSVEELAQTRVYWQKDKKMVLTMMSGDVNIWPEYKNRTIFDITNNLSIVILGLRPSDEGTYECVVLKYEKDVFKREHLAEVTLSVKADFPTPSISDFEIPTSNIRRIICSTSGGFPEPHLSWLENGEELNAINTTVSQDPETELYAVSSKLDFNMTTNHSFMCLIKYGHLRVNQTFNWNTTKQEHFPDNLLPSWAITLISVNGIFVICCLTYCFAPRCRERRRNERLRRESVRPV | – | 1503 RLU | – | 204756 | –
5 | E35D/M43I/M47V/K89N (protein, UniProt P33681 35-288, looked up, variant E35D M43I M47V K89N) T-lymphocyte activation …: VIHVTKEVKEVATLSCGHNVSVEELAQTRIYWQKDKKMVLTMISGDVNIWPEYKNRTIFDITNNLSIVILALRPSDEGTYECVVLKYENDAFKREHLAEVTLSVKADFPTPSISDFEIPTSNIRRIICSTSGGFPEPHLSWLENGEELNAINTTVSQDPETELYAVSSKLDFNMTTNHSFMCLIKYGHLRVNQTFNWNTTKQEHFPDNLLPSWAITLISVNGIFVICCLTYCFAPRCRERRRNERLRRESVRPV | – | 1094 RLU | 19250 | 278391 | –
6 | E35D/A71G (protein, UniProt P33681 35-288, looked up, variant E35D A71G) T-lymphocyte activation …: VIHVTKEVKEVATLSCGHNVSVEELAQTRIYWQKDKKMVLTMMSGDMNIWPEYKNRTIFDITNNLSIVILGLRPSDEGTYECVVLKYEKDAFKREHLAEVTLSVKADFPTPSISDFEIPTSNIRRIICSTSGGFPEPHLSWLENGEELNAINTTVSQDPETELYAVSSKLDFNMTTNHSFMCLIKYGHLRVNQTFNWNTTKQEHFPDNLLPSWAITLISVNGIFVICCLTYCFAPRCRERRRNERLRRESVRPV | – | 1190 RLU | 34149 | 184204 | –
7 | E35D/L85Q/K93T/E95V/L97Q (protein, UniProt P33681 35-288, looked up, variant E35D L85Q K93T E95V L97Q) T-lymphocyte activation …: VIHVTKEVKEVATLSCGHNVSVEELAQTRIYWQKDKKMVLTMMSGDMNIWPEYKNRTIFDITNNLSIVILALRPSDEGTYECVVQKYEKDAFTRVHQAEVTLSVKADFPTPSISDFEIPTSNIRRIICSTSGGFPEPHLSWLENGEELNAINTTVSQDPETELYAVSSKLDFNMTTNHSFMCLIKYGHLRVNQTFNWNTTKQEHFPDNLLPSWAITLISVNGIFVICCLTYCFAPRCRERRRNERLRRESVRPV | – | 315 RLU | – | – | 1.5

Next, values leading:

Row | CD28 MFI at 33.3 nM [1] | Relative Luciferase Units (RLU), CD80-Fe Cone 50 nM [2] | PD-L1 MFI at 33.3 nM [3] | CTLA4 MFI at 33.3 nM [4] | Fold Increase over WT CD80-IgV-Fe [2] | Molecule
8 | – | 1535 RLU | – | 209034 | – | E35D/T41S/M43I/M47L/A71G (protein, UniProt P33681 35-288, looked up, variant E35D T41S M43I M47L A71G) T-lymphocyte activation …: VIHVTKEVKEVATLSCGHNVSVEELAQTRIYWQKDKKMVLSMISGDLNIWPEYKNRTIFDITNNLSIVILGLRPSDEGTYECVVLKYEKDAFKREHLAEVTLSVKADFPTPSISDFEIPTSNIRRIICSTSGGFPEPHLSWLENGEELNAINTTVSQDPETELYAVSSKLDFNMTTNHSFMCLIKYGHLRVNQTFNWNTTKQEHFPDNLLPSWAITLISVNGIFVICCLTYCFAPRCRERRRNERLRRESVRPV
9 | 6360 | 1190 RLU | 36216 | – | – | E35D/M47V/A71G (protein, UniProt P33681 35-288, looked up, variant E35D M47V A71G) T-lymphocyte activation …: VIHVTKEVKEVATLSCGHNVSVEELAQTRIYWQKDKKMVLTMMSGDVNIWPEYKNRTIFDITNNLSIVILGLRPSDEGTYECVVLKYEKDAFKREHLAEVTLSVKADFPTPSISDFEIPTSNIRRIICSTSGGFPEPHLSWLENGEELNAINTTVSQDPETELYAVSSKLDFNMTTNHSFMCLIKYGHLRVNQTFNWNTTKQEHFPDNLLPSWAITLISVNGIFVICCLTYCFAPRCRERRRNERLRRESVRPV
10 | 1436 | 1256 RLU | – | – | – | E35D/M47L/A71G/L85Q (protein, UniProt P33681 35-288, looked up, variant E35D M47L A71G L85Q) T-lymphocyte activation …: VIHVTKEVKEVATLSCGHNVSVEELAQTRIYWQKDKKMVLTMMSGDLNIWPEYKNRTIFDITNNLSIVILGLRPSDEGTYECVVQKYEKDAFKREHLAEVTLSVKADFPTPSISDFEIPTSNIRRIICSTSGGFPEPHLSWLENGEELNAINTTVSQDPETELYAVSSKLDFNMTTNHSFMCLIKYGHLRVNQTFNWNTTKQEHFPDNLLPSWAITLISVNGIFVICCLTYCFAPRCRERRRNERLRRESVRPV
11 | 6237 | 1216 RLU | 37146 | – | – | E35D/M47V/A71G/E88D (protein, UniProt P33681 35-288, looked up, variant E35D M47V A71G E88D) T-lymphocyte activation …: VIHVTKEVKEVATLSCGHNVSVEELAQTRIYWQKDKKMVLTMMSGDVNIWPEYKNRTIFDITNNLSIVILGLRPSDEGTYECVVLKYDKDAFKREHLAEVTLSVKADFPTPSISDFEIPTSNIRRIICSTSGGFPEPHLSWLENGEELNAINTTVSQDPETELYAVSSKLDFNMTTNHSFMCLIKYGHLRVNQTFNWNTTKQEHFPDNLLPSWAITLISVNGIFVICCLTYCFAPRCRERRRNERLRRESVRPV
